# T1: IL-27RA on NCI-H2228 lung cancer cells (human, UniProt Q6UWB1 33-636)
# T1 sequence: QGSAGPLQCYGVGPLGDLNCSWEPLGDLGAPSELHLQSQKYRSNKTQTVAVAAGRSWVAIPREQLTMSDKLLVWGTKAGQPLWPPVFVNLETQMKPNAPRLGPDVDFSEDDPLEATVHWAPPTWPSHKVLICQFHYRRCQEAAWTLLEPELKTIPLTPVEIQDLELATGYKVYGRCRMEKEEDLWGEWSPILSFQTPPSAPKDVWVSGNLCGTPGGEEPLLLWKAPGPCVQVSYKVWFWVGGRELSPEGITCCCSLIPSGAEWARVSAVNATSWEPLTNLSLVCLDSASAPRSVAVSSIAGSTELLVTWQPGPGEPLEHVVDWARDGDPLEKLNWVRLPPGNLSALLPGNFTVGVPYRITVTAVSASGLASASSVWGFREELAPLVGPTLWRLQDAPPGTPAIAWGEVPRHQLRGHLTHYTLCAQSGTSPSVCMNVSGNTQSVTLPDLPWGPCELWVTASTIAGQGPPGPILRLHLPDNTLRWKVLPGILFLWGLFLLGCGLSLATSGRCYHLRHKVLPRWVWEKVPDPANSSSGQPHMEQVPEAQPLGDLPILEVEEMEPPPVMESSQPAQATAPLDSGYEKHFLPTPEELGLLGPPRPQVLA
# Target: T1, IL-27RA on NCI-H2228 lung cancer cells
# Experiment: cell-based or functional assay
binder,measurement,value
recombinant human IL-27 (ligand) chain 1: RKGPPAALTLPRVQCRASRYPIAVDCSWTLPPAPNSTSPVSFIATYRLGMAARGHSWPCLQQTPTSTSCTITDVQLFSMAPYVLNVTAVHPWGSSSSFVPFITEHIIKPDPPEGVRLSPLAERQLQVQWEPPGSWPFPEIFSLKYWIRYKRQGAARFHRVGPIEATSFILRAVRPRARYYVQVAAQDLTDYGELSDWSLPATATMSLGK chain 2: FPRPPGRPQLSLQELRREFTVSLHLARKLLSEVRGQAHRFAESHLPGVNLYLLPLGEQLPDVSLTFQAWRRLSDPERLCFISTTLQPFHALLGGLGTQGRWTNMERMQLWAMRLDLRDLQRHLRFQVLAAGFNLPEEEEEEEEEEEEERKGLLPGALGSALQGPAQVSWPQLLSTYRLLHSLELVLSRAVRELLLLSKAGHSVWPLGFPTLSPQP,"EC50 of STAT1 phosphorylation (pSTAT1-PE GeoMean, flow cytometry) in NCI-H2228 lung cancer cells cultured with graded concentrations of IL-27",5.3 ng/mL

# — patent US20220389089A1 (SURFACE ONCOLOGY, published 2022)
